Results reported in article PMC8055526.
Each block holds one molecule with its values, some of them ahead of it.

Assays:
sFlt-1 (Homo sapiens) = sFlt-1 (Homo sapiens) (UniProt P17948); settings: cited from earlier work
human VEGF (human) [1] = target: human VEGF (human) (UniProt P15692)
human VEGF (human) [2] = target: human VEGF (human) (UniProt P15692); remark: listed apart in the source
mouse VEGF (mouse) = mouse VEGF (mouse) (UniProt Q00731)

UniProt P17948, sequence (P17948 27-1338): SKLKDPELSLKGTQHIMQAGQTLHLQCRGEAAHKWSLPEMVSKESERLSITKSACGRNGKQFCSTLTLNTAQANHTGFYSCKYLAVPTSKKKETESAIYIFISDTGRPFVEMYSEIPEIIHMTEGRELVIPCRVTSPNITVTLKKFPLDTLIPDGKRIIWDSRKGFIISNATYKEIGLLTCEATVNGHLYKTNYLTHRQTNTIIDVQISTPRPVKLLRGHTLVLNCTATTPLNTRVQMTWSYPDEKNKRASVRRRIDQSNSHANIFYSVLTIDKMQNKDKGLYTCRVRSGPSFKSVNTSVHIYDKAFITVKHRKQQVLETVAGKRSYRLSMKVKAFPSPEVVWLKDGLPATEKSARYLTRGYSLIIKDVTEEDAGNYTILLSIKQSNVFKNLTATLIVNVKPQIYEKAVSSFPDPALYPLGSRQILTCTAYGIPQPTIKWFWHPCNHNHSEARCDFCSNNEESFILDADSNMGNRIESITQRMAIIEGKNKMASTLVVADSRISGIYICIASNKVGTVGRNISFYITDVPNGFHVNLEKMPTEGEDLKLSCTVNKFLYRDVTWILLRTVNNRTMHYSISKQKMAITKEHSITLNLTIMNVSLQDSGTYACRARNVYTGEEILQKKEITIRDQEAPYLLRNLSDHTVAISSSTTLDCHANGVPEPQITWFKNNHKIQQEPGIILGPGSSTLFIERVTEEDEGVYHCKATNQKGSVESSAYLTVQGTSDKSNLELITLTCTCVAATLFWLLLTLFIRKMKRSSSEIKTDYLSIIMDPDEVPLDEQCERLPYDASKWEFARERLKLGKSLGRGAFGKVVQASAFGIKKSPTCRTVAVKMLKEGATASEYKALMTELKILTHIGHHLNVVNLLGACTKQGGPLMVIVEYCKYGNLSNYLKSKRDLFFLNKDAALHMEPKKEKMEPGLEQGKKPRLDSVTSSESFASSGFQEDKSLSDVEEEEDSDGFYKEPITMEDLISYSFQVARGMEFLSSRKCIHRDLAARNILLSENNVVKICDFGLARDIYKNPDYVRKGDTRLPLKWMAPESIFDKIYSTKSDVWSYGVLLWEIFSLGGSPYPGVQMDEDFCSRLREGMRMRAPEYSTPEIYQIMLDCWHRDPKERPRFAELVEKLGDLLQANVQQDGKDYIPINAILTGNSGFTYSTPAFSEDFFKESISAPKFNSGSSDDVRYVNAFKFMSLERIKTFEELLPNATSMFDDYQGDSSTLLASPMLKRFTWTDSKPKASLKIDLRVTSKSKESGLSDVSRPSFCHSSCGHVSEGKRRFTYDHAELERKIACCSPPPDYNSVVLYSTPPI

Molecule: VEGF (from UniProt P15692)
Kd (sFlt-1 (Homo sapiens)): 0.03 nM

VEGFR-2 phosphorylation in HUVECs with human VEGF, human sFlt-1 and a 4-fold molar excess of the antibody 21B3 (no letters) (human VEGF (human) [1]): 85 % of maximum | VEGFR-2 phosphorylation in HUVECs with VEGF, human sFlt-1 and 2 times to 4 times molar excess of the antibody 27H6 (human VEGF (human) [2]): 89 % of maximum
Molecule: human recombinant VEGFR-1/Flt-1 Fc chimera (from UniProt P17948-2 27-687) (Fc fusion)

VEGFR-2 phosphorylation in HUVECs with mouse VEGF, mouse sFlt-1 and a 10-fold molar excess of the antibody 21B3 (no letters) (mouse VEGF (mouse)): 85 % of maximum
B1: mouse recombinant VEGFR-1/Flt-1 Fc chimera (Fc fusion)
chain: YGSGSKLKVPELSLKGTQHVMQAGQTLFLKCRGEAAHSWSLPTTVSQEDKRLSITPPSACGRDNRQFCSTLTLDTAQANHTGLYTCRYLPTSTSKKKKAESSIYIFVSDAGSPFIEMHTDIPKLVHMTEGRQLIIPCRVTSPNVTVTLKKFPFDTLTPDGQRITWDSRRGFIIANATYKEIGLLNCEATVNGHLYQTNYLTHRQTNTILDVQIRPPSPVRLLHGQTLVLNCTATTELNTRVQMSWNYPGKATKRASIRQRIDRSHSHNNVFHSVLKINNVESRDKGLYTCRVKSGSSFQSFNTSVHVYEKGFISVKHRKQPVQETTAGRRSYRLSMKVKAFPSPEIVWLKDGSPATLKSARYLVHGYSLIIKDVTTEDAGDYTILLGIKQSRLFKNLTATLIVNVKPQIYEKSVSSLPSPPLYPLGSRQVLTCTVYGIPRPTITWLWHPCHHNHSKERYDFCTENEESFILDPSSNLGNRIESISQRMTVIEGTNKTVSTLVVADSQTPGIYSCRAFNKIGTVERNIKFYVTDVPNGFHVSLEKMPAEGEDLKLSCVVNKFLYRDITWILLRTVNNRTMHHSISKQKMATTQDYSITLNLVIKNVSLEDSGTYACRARNIYTGEDILRKTEVLVRDSEAPHLLQNLSDYEVSISGSTTLDCQARGVPAPQITWFKNNHKIQQEPGIILGPGNSTLFIERVTEEDEGVYRCRATNQKGAVESAAYLTVQGTSDKSNLE
